From US7662384B2, “Use of anti-α5β1 antibodies to inhibit cancer cell proliferation” (Facet Biotech Corporation, priority 2004, dated 2010)

Tests used:
human NW231 tumors = assay: NW231 xenograft tumor establishment, IIA1 with DOXIL; format: in vivo, SCID mice; conditions: 24 days post-implant (control TIB ~425 mm^3)
Experimental: The following experiment was conducted in order to determine the efficacy of the anti-α5β1 integrin antibody, IIA1 in combination with the chemotherapeutic agent, DOXIL®, for preventing establishment of human NW231 tumors in vivo. DOXIL® is a liposome encapsulated formulation of doxorubicin HCl, a cytotoxic anthracycline antibiotic isolated from Streptomyces peucetius. The NW231 cell line originated from breast cancer and is considered a good model for studying treatments for breast cancer.
Four to six week old female SCID mice obtained from Taconic Farms and maintained in micro-isolator cages were inoculated in the mammary fat pads with 1×10^7 NW231 cells. Animals received either TIB control (n=20) or […] (n=20) at 5 mg/kg for the first injection at the time of tumor cell inoculation. Subsequent treatments were at 0.7 mg/kg per injection. DOXIL® treatment was commenced 5 days post tumor cell inoculation. Chemotherapeutic doses were at 4 mg/kg for the first injection and at 2 mg/kg for subsequent injections. Reagents were delivered by intraperitoneal injection for four doses. Tumor volume was measured twice weekly and clinical and mortality observations were performed daily according to IACUC regulations.

VX2 carcinoma = assay: M200 VX2 rabbit tumor efficacy study; format: in vivo
Experimental: Starting on Day 5, tumor dimensions (Length, Width and Height) were measured in millimeters via electronic vernier calipers connected to a laptop computer at a minimum frequency of twice weekly. For consistency, the same trained technician performed the tumor measurements throughout the course of the study. Tumor volume was calculated using the formula: Length×Width×Height×0.52. Upon animal termination, tumors were carefully excised, trimmed and weighed. In addition, animals were weighed a minimum of once weekly. Representative samples of each tumor were preserved in sample cassette in formalin or OCT and flash frozen in liquid nitrogen.
Rabbits (30 total) were inoculated, either subcutaneously or intramuscularly with either a VX2 cell suspension (100 μl) or pieces of tumor (˜5-10 mm^3). The test group of 20 was treated with M200 at 10 mg/kg intravenously, twice weekly for 3 weeks. The control group of 10 animals was treated with a control IgG delivered by the same method as the M200. Tumor measurements, termination, weighing, tumor preservation and study duration were carried out according to the methods described above for the Pilot Study. In addition, one milliliter of blood was taken from an ear vessel on a weekly basis for serum analysis.

TK-10 = assay: M200 in vitro cell proliferation assay; format: cell-based; conditions: TK-10 (renal), 4-day assay
Experimental: (§1) Cancer cell lines were plated at a density of 2500 cells/well in 96-well plates in IMDM with supplements in the presence or absence of 10% FBS. At the time of plating, cells were challenged with various concentrations M200 or a non-function blocking anti-α5 antibody, VC5. Four days later, cell viability was assessed by the CellTiter 96 AQueous Non-Radioactive Cell Proliferation Assay (Promega) according to the manufacturer's instructions. All growth studies were done at least 3 times in triplicate.

ASPC-1 = assay: M200 in vitro cell proliferation assay; format: cell-based; conditions: ASPC-1 (pancreas), 4-day assay
Experimental: as §1

CAPAN-1 = assay: M200 in vitro cell proliferation assay; format: cell-based; conditions: CAPAN-1 (pancreas), 4-day assay
Experimental: as §1

[1] = target: α5β1 integrin found in rabbit (Oryctolagus cuniculus, UniProt A0A5F9C3C4+A0A5F9CXX2); assay: species cross-reactivity of anti-α5β1 antibody; format: binding
Sequence of α5β1 integrin found in rabbit (A0A5F9CXX2 1-1041): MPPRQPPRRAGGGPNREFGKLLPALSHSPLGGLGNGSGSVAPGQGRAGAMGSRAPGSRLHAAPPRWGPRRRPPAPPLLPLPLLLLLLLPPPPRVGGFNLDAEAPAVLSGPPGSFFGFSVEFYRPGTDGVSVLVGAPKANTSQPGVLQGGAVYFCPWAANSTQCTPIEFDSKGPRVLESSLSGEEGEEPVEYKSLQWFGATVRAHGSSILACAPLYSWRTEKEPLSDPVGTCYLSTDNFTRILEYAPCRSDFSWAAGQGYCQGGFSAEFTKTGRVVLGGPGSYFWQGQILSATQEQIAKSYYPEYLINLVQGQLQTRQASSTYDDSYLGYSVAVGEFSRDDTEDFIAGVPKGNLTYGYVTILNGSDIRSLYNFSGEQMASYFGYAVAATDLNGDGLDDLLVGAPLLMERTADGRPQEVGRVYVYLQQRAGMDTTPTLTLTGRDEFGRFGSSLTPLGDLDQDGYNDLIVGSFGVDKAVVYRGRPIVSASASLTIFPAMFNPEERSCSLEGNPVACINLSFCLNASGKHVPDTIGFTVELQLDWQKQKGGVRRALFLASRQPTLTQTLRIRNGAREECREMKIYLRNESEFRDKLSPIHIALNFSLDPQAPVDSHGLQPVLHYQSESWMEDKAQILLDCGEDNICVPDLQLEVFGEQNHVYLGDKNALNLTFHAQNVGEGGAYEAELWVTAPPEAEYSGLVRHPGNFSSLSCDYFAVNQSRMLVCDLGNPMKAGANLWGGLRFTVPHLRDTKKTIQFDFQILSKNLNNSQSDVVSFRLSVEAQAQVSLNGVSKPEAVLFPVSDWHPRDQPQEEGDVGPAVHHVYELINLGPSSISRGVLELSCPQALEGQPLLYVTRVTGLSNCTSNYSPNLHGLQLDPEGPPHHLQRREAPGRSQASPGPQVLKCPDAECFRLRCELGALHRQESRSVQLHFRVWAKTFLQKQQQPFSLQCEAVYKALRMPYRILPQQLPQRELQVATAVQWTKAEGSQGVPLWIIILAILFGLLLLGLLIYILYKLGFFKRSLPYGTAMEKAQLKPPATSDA
Sequence of α5β1 integrin found in rabbit (A0A5F9C3C4 21-798): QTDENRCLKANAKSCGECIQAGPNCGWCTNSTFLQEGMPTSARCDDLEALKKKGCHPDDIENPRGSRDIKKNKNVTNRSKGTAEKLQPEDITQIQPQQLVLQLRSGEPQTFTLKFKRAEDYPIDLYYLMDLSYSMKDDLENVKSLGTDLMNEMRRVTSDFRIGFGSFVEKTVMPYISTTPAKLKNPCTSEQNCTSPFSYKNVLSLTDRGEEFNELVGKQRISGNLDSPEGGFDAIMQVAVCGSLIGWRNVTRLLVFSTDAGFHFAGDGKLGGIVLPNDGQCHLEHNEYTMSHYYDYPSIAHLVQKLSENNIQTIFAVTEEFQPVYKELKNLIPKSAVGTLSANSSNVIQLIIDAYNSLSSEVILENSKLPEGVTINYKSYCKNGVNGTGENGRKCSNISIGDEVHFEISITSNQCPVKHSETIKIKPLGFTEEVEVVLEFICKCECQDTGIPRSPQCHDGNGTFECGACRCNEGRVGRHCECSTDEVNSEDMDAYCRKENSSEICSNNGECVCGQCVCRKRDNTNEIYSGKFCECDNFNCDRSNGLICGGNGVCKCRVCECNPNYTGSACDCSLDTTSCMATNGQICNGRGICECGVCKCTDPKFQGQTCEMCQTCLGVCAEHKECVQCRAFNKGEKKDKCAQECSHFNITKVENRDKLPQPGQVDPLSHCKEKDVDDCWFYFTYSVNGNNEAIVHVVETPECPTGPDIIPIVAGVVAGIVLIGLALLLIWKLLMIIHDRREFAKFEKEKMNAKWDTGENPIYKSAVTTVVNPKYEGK

refractory solid tumors = assay: Phase I extension study: tumor response; format: in vivo, human
Experimental: A two-part Phase I open-label study was carried to determine the effects of treatment with up to 6 dose levels, from 0.5 mg/kg to 15.0 mg/kg of M200 (volociximab) in 21 human patients with a variety of refractory solid tumor types. The total duration of treatment for the first part was 6 weeks with physical assessments through 45 days after the last dose.
Patient evaluations during the study included the following: • a. Screening (within 14 days of study entry) of: medical history and physical examination, ECOG performance status, routine chemistry panel, complete blood count (CBC) with differential and platelets, sensitive C-reactive protein (CRP), urinalysis with microscopic analysis (UA/micro), electrocardiogram (ECG), chest radiograph (CXR), disease-directed body CT or MRI, urine pregnancy test within 48 hours prior to dosing, and coagulation studies (prothrombin [PT] and partial thromboplastin time [PTT]), anti-M200 antibodies (i.e., to detect cross-reactive HAMA or HACA) for patients who previously received murine or chimeric antibodies, head CT for patients with tumors that commonly metastasize to brain or CNS, and, in some patients, a biopsy to evaluate tumor vessel vascularity. • b. On-study laboratory evaluations: routine chemistry panel, urate, serum amylase, CBC with differential and platelets, UA/micro. • c. Routine disease-directed radiographic imaging (e.g., CT scanning) before and after treatment with M200 was used to evaluate tumor response using uni-dimensional, RECIST criteria. Target lesions were selected on the basis of their size (lesions with the longest diameter (LD)) and their suitability for accurate repetitive measurements (either by imaging techniques or clinically). A sum of the LD for all target lesions was calculated and reported as the baseline sum LD. The baseline sum LD was used as reference by which to characterize the objective tumor response. The following response criteria for the target lesions was used to assess the best overall response. • Complete Response (CR): Disappearance of all target lesions confirmed by repeat imaging 25 to 28 days after CR first documented. • Partial Response (PR): At least a 30% decrease in the sum of LD of target lesions, taking as reference the baseline sum LD, confirmed by repeat imaging 25 to 28 days after PR first documented. • Stable Disease (SD): Neither sufficient shrinkage to qualify for PR nor sufficient increase to qualify for PD, taking as references the smallest sum LD. • Progressive Disease (PD): At least a 20% increase in the sum of LD of target lesions, taking as reference the smallest sum LD recorded since treatment started, or the appearance of one or more new lesions. • d. Blood drawn for serum PK measurements, immunogenicity assays (anti-M200 antibodies), vascular growth factors, and measurement of bound and unbound α5β1 on peripheral blood monocytes. • e. A 3-mm punch biopsy of superficial tumor metastasis was obtained and frozen after the last treatment with M200 from patients who consented (not required for enrollment) to the procedure. This biopsy specimen could be used evaluate tumor vessel vascularity following treatment with M200.
One of these patients with renal cell cancer (RCC) in the 15.0 mg/kg cohort achieved a partial response.

B1: IIA1: parent mouse IgG1 class anti-α5β1 antibody shown to inhibit α5β1 integrin binding to fibronectin (antibody, V domains shown)
VH: MAVLGLLLCLVTFPSCVLSQVQLKESGPGLVAPSQSLSITCTISGFSLTDYGVHWVRQPPGKGLEWLVVIWSDGSSTYNSALKSRMTIRKDNSKSQVFLIMNSLQTDDSAMYYCARHGTYYGMTTTGDALDYWGQGTSVTVSS
VL: MDFQVQIFSFLLISASVIMSRGQIVLTQSPAIMSASLGERVTMTCTASSSVSSNYLHWYQQKPGSAPNLWIYSTSNLASGVPARFSGSGSGTSYSLTISSMEAEDAATYYCHQYLRSPPTFGGGTKLEIK
modifications: mus muscalus
With B1 as the molecule, how does the mean tumor volume (human NW231 tumors) read?
The mean tumor volume was ~175 mm^3.

B2: M200: chimeric IgG4 anti-α5β1 antibody derived from IIA1; generic name volociximab (antibody, V domains shown)
VH: MAVLGLLLCLVTFPSCVLSQVQLKESGPGLVAPSQSLSITCTISGFSLTDYGVHWVRQPPGKGLEWLVVIWSDGSSTYNSALKSRMTIRKDNSKSQVFLIMNSLQTDDSAMYYCARHGTYYGMTTTGDALDYWGQGTSVTVSS
VL: MDFQVQIFSFLLISASVIMSRGQIVLTQSPAIMSASLGERVTMTCTASSSVSSNYLHWYQQKPGSAPNLWIYSTSNLASGVPARFSGSGSGTSYSLTISSMEAEDAATYYCHQYLRSPPTFGGGTKLEIKDMSVDMSV
modifications: chimeric antibody
notes: chimeric IgG4 anti-α5β1 antibody derived from IIA1; generic name volociximab
For B2, which “circulating level of M200 at which tumor growth was inhibited” value (VX2 carcinoma; rabbit VX2 model) is on record?
The value was ≥ 50 µg/mL.

And the VX2 tumor growth (VX2 carcinoma; rabbit, 10 mg/kg intravenously, twice weekly for 3 weeks)?
The VX2 tumor growth was “able to inhibit tumor growth”.

And the immunogenicity (VX2 carcinoma; rabbits, immune response as early as two weeks, eventually all animals seroconvert)?
Its immunogenicity is “immunogenic in rabbits”.

What about the “% Growth Inhibition +Serum” value (TK-10; 10% FBS) of the same molecule?
Its value is 0%.

And the “% Growth Inhibition −Serum” value (TK-10; absence of serum)?
Its value is 0%.

And the “% Growth Inhibition +Serum” value (ASPC-1; 10% FBS)?
Its value is 0%.

What about the “% Growth Inhibition −Serum” value (ASPC-1; absence of serum) of the same molecule?
The value was 0%.

What about the “% Growth Inhibition +Serum” value (CAPAN-1; 10% FBS) of the same molecule?
The value was 0%.

What about the “% Growth Inhibition −Serum” value (CAPAN-1; absence of serum) of the same molecule?
Its value is 0%.

And the “recognition of α5β1 integrin found in rabbit” value [1]?
Its value is “does recognize”.

And the “Best Response Outcome” value (refractory solid tumors; 2.5 mg/kg, 1 patient, NSCLC)?
Its value is “SD (SD defined as stabilization for ≧16 weeks (112 days))”.

And the “Time to Progression” value (refractory solid tumors; 2.5 mg/kg, 1 patient, NSCLC, includes 43 days on dose escalation study)?
Its value is 129 days.

What about the “Best Response Outcome” value (refractory solid tumors; 5 mg/kg, 1 patient, HCC) of the same molecule?
Its value is “SD (SD defined as stabilization for ≧16 weeks (112 days))”.

And the “Time to Progression” value (refractory solid tumors; 5 mg/kg, 1 patient, HCC, includes 43 days on dose escalation study)?
Its value is 122 days.

What about the “Time to Progression” value (refractory solid tumors; 10 mg/kg, 1 patient, CRC, includes 43 days on dose escalation study) of the same molecule?
Its value is 70 days.

What about the “Best Response Outcome” value (refractory solid tumors; 10 mg/kg, 1 patient, PARO) of the same molecule?
Its value is “SD (SD defined as stabilization for ≧16 weeks (112 days))”.

And the “Time to Progression” value (refractory solid tumors; 10 mg/kg, 1 patient, PARO, includes 43 days on dose escalation study)?
Its value is 143 days.

And the “Best Response Outcome” value (refractory solid tumors; 15 mg/kg, 1 patient, MEL)?
Its value is “SD (SD defined as stabilization for ≧16 weeks (112 days))”.

And the “Time to Progression (Days)” value (refractory solid tumors; 15 mg/kg, 1 patient, MEL, on study, includes 43 days on dose escalation study)?
Its value is 172+ (on Study) Days.

What about the “Time to Progression” value (refractory solid tumors; 15 mg/kg, 1 patient, RCC, includes 43 days on dose escalation study) of the same molecule?
The value was 214 days.

What about the “patients exhibiting stable disease (SD) or better response” value (refractory solid tumors; of the 6 patients in the extension study) of the same molecule?
The value was 5 patients.
